Laboratory results from the DeepSol protein solubility set.

Test: soluble on expression in E. coli; label from the status in PepcDB or PDB records
For “MGSDKIHHHHHHENLYFQGMKTIVIEDKQRIESIILQADACFVGITDLEGNPYVVPMNFGYENDTLYLHSGPEGGKIEMLQRNNNVCITFSLGHKLVYQHKQVACSYSMRSESAMCRGKVEFIEDMEEKRHALDIIMRHYTKDQFSYSDPAVRNVKVWKVPVDQMTGKVFGLRADEKP”, the “soluble on expression in E. coli” value was “soluble”.
In the case of “QNNKDEKKITKIGVLQFVSHPSLDLIYKGIQDGLAEEGYKDDQVKIDFMNSEGDQSKVATMSKQLVANGNDLVVGIATPAAQGLASATKDLPVIMAAITDPIGANLVKDLKKPGGNVTGVSDHNPAQQQVELIKALTPNVKTIGALYSSSEDNSKTQVEEFKAYAEKAGLTVETFAVPSTNEIASTVTVMTSKVDAIWVPIDNTIASGFPTVVSSNQSSKKPIYPSATAMVEVGGLASVVIDQHDLGVATGKMIVQVLKGAKPADTPVNVFSTGKSVINKKIAQELGITIPESVLKEAGQVI”, the “soluble on expression in E. coli” value is reported as “not soluble”.
With “MPIIASESSHESIPQDFMDAVESMHKAQLRPEISLGTIRPPQRLAPFSHAVGLEVSGTLSDDSQGDAFGRLILLHDPTSDESWDGSMRLVAYIQADMDASVANDPLLPDVAWQWLTEALDKTHADHTNLGGTVTATASVRFGEIGGPPRAYQVEMRASWTATAIDLAPHVSAFAQVLANVAGLSPEGTTSISR” the “soluble on expression in E. coli” value was “not soluble”.
With “MSLSEDENALSIFETNCHSGSPKKQSSSAAIHKPYLHFTMSPYHQPTSYRPRLLLSGERGSGQTSHLAPALLHTLERFSVHRLDLPALYSVSAKTPEESCAQIFREARRTVPSIVYMPHIGDWWEAVSETVRATFLTLLQDIPSFSPIFLLSTSETMYSELPEEVKCIFRIQYEEVLYIQRPIEEDRRKFFQELILNQASMAPPRRKHAALCAMEVLPLALPSPPRQLSESEKSRMEDQEENTLRELRLFLRDVTKRLATDKRFNIFSKPVDIEEVSDYLEVIKEPMDLSTVITKIDKHNYLTAKDFLKDIDLICSNALEYNPDKDPGDKIIRHRACTLKDTAHAIIAAELDPEFNKLCEEIKEARIEGHHHHHH” the “soluble on expression in E. coli” value was “not soluble”.
In the case of “MGSDKIHHHHHHMNWDDIKIFLEVARAERLSTAAKRLTMDASTVSRRLHKLEESIATKLFDRTQDGHVLTPDGEMLLTSACKMEQDAQHALSSIHNNNEENCGLVRIGVTEALGNFFVSPNLLTLQQQHPSIDVHLLLFSRYVKISRNEADIAIAVERPKSTSMIVSKLCDYKLQLYVHQDYLDHNLKQYPQGITLDNLAEHKWVTYVDNLIFTDQLSYIKELDRYLSGELKANFSSTSIISQYFAIKSGLGIGILPCFLADQDKSLIKLHSQDITISRSFWLVTHPESKRLSHVNTVWQYLKQLVLEHAELLNPKE”, the “soluble on expression in E. coli” value is reported as “not soluble”.
For “MPAPLWSPSAERIAASRMEAFRRFVNQRHALGLVDYPALHAWSVQRREAFWQAIVDFFEVRFQQPPRAVLEEGAQMPSARWFPGATLNFAEHLLRRRDDAPALIAVSEDGRREVLSHAELARHVAGLQKRLAALGIGPGDRVAALMPNTWQTVVGMLATASLGATWSSCSPDFGTQGVIDRFGQIEPRVLIACAGYRYAGKSLDLTAKLNEVLAGLPGLEQLLVVPYDRPQAQPQDYRCQAQVALWDGFYQAEGEPVFTPVPFEQPLYILYSSGTTGVPKCIVHATGGVLLQHLKEHGLHTDLGDGDRLFYYTTCGWMMWNWLASGLAVGASLVLYDGSPFHPGPERLLDLIDAEDIAVFGASAKYLAALEKAGMRPRHSHRLDSLRTLLSTGSPLAHESFDYVYRELKSDLCLSSISGGTDIVSCFAIGNPVLPVWRGELQCKALGMAVEIWDDDGRRLASGKGELVCTRHFPSIPLGFWNDPDGTRFHDAYFASFPGVWAHGDYAEETVHGGLVIHGRSDAVLNPGGVRIGTAEIYRQVEKVEEVLESIAIGQDWQGDVRVLLFVRLRDGVRLDEPLRERIRQTIRANATPRHVPAKIIQVADIPRTLSGKIVELAVRNVIHGRPVKNTDALANPQALELYRDLAEL”, the “soluble on expression in E. coli” value was “not soluble”.
In the case of “EPEEEQITVLENGSWLIDGDTPVNKLKYVLSVDSFPGEEQGYYLTIAGLIMYILQRIPKTGDHMEFNGLRYEVVDMDGIRIDKVMVTKVP”, the “soluble on expression in E. coli” value is reported as “soluble”.
With “MSLFCLPLEMRNHWHFFSLFTNLPRKSKWHRASEFFFPLLMSEIEDFR” the “soluble on expression in E. coli” value was “soluble”.
With “MAHHHHHHMRRVIHGEVRHHNTDTNNTRIPWDFTMASYEEINNVILPKFPRSRRRSAIIPLLHLAQRQQGGYIPVTAMYKIARICEVPPMQVFETVTFYSMFNRQPVGKYHIQFCVTTPCMLCGCDELVHRTEAYLNVKMHGTTRDGLITLGEMQCLGACVNAPMLVVSDYSRPPHFSYDFVEDLTWDSVKELIENLREGRPFKVGTCREDRRWSEPAGGRTSIFMKEPPKPYCRDLDAKPVQPGASTGGAAKK” the “soluble on expression in E. coli” value was “not soluble”.
With “MGSDKIHHHHHHMEAKWLEDFLSLADTKSFSRAARHRHLTQSAFSRRIAALETWMDAKLVDRSINPITLTPAGQMFRGLAADILRSMYAARNLVNGYDQFAASDQVVRFAVAHTLVFTLFPEWLKQLNGEVGHVTARVNAVNVPEGVQQLVEGECDLLLGYHHPQLPIVLDPNHFPFVTLGVERILPVSTPDAHGRPVFELPGAPDAPLPLLAYSSGAFLGNVVEMLLLNASESYALHRCFETHMSEALKGMVVAGHGIGWLPESCVAKELAEGSLVRAGSADWITELEIRLYRSARKRGLAAEQLWTYIMNRPRTAADGLVAAEPGAPAVRIARRSVGGSR” the “soluble on expression in E. coli” value was “not soluble”.
With “MLAAGEGKRMGACKPLLPLGASTVLAHVAKTLLPAINGPLVVVTGHHGDAVTAEALRLSLETAENTTPQDGMFSSVRTGIAHIVGRVDGVLVLPADIPFVRTATCALVVEAFRRHRAAVTYPTLCGERGHPPLLDADTMRAVLASSGDGGLRGVLLALERQGGTTHDVAVADEGIVTDMDTPADHAQLVARHPLRHIPTPREREALLEMAGTPARVRAHCRMVARAALAMAAHLEATRRGFISPFARQSAPHGISTSGAHAEPRSVPASTTTHAVHAEGNTTLPHTATAHVACPPPDVTTGPMPTCQPGHMPDHMPGTARDAAQQAPAATASPQRLDRPLIHAAATLHDICKGTQRHEAAGGALLTRHGFPEVGSIIAAHRDIAPQAGPEIDEAALVMLADKYVRGVSLIPVEERFDERLREWAHRPDVACDIAARKARVLMVRDLFESETATELFPLLQRKVRRGTFLEHHHHHH” the “soluble on expression in E. coli” value was “not soluble”.
For “MSLSKEKEVLLNEEIRADEIRCVGDDGKVYGIISSDEALEIANRLGLDLVMIAADAKPPVCKIMDYGKFRYQQEKKQKEAKKKQKVIDIKEIKLSVKIAQNDINYKVKHALEFLEQGKHVRFRVFLKGREMATPEAGVALLEKIWTMIENEANRDKEPNFEGRYVNMLVTPKKAEGHHHHHH”, the “soluble on expression in E. coli” value was “soluble”.
In the case of “MGSDKIHHHHHHMKEIALLAIARYGDLIQTTPLVRALRRAHPGARITAIVEDRFCGILPLLPGIDRTIVLNKQDIAWDIATGDSPLVPYLKMDEFVRKLEEGSYDLLVNITCSRLSAFFASCVTSRRRTGISADEAGERNIVTLWGQYIFSWFNDNIRKYNAINLVDIFTRLGEVPPDGRRVELVATEKGERFADDFLDRHGLRGQRLVGLQLGASEATRIWPAEHFARISDRLQRELGVRTILFGAPVEKHLAGQAMAAMEMPAVDAVGETGIEELYSLVGRCAALVSNDTGTMHFAAAAGVPAVMLCIGPAFFRCTGPYGEGHLALQPDLPCSPCPYSLVCADPVCRDTISPEAVFSACRMILAGADGLGNADFSGVRVYRSSFAPDGYLTWDGLFNVDAWEEEQVKRRESAWKGCFDGSTKGCGAPGDETLRAFWELTGRGIEATEAIIRAARKKPLPVDEIRRLGEKESAIEAEVKLMGYRHEPLAPVTEFLTLMRENITGEELGRIARETRSLYETGRCLAALL”, the “soluble on expression in E. coli” value is reported as “not soluble”.
For “GTKQKMRTVFSQAQLCALKDRFQKQKYLSLQQMQELSSILNLSYKQVKTWFQNQRMKCKRWQ”, the “soluble on expression in E. coli” value was “soluble”.
With “MSGMWLWASVSPESTGIKMSESFAELFEESLKTLNLQPGAIITGIVVDIDGDWVTVHAGLKSEGVIPLEQFYNEAGELTIKVGDEVHVALDAVEDGFGETKLSREKAKRAECWIVLEAAFAAEEVVKGVINGKVKGGFTVDVNGIRAFLPGSLVDVRPVRDTTHLEGKELEFKVIKLDQKRNNVVVSRRSVLEAENSAEREALLETLQEGQQVKGIVKNLTDYGAFVDLGGIDGLLHITDMAWKRIKHPSEIVNVGDEVDVRVLKFDRERNRVSLGLKQMGEDPWVAITARYPEGTRVQARVTNLTDYGCFAELEEGVEGLVHVSEMDWTNKNIHPSKVVQVGDEVEVMVLDIDEERRRISLGIKQCKSNPWEDFSGQFNKGDKITGTIKSITDFGIFIGLDGGIDGLVHLSDISWNETGEEAVRRFKKGDELETVILSVDPERERISLGIKQLEDDPFSNFVAVNDKGAIVKGIVKEVDAKGAIVTLADDIEATLKASEISRDRVEDARNVLKEGEEIEAKIISVDRKSRVISLSIKSKDDAEEREAIQSLKNAPEAAADTTMAALLREAMAKQNLEHHHHHH” the “soluble on expression in E. coli” value was “soluble”.
For “MDFQNFVATLESFKDLKSGISGSRIKKLTTYALDHIDIESKIISLIIDYSRLCPDSHKLGSLYIIDSIGRAYLDETRSNSNSSSNKPGTCAHAINTLGEVIQELLSDAIAKSNQDHKEKIRMLLDIWDRSGLFQKSYLNAIRSKCFAAALEHHHHHH”, the “soluble on expression in E. coli” value was “soluble”.
In the case of “FPRVSQELKTALSTLQQTFVVSDATQPHCPIVYASSGFFTMTGYSSKEIVGRNCRFLQGPDTDKNEVAKIRDCVKNGKSYCGRLLNYKKDGTPFWNLLTVTPIKDDQGNTIKFIGMQVEVSKYTEGVNDK”, the “soluble on expression in E. coli” value is reported as “soluble”.
In the case of “MWQNFYLTTLKLSQYTQEEKPILPADNMDPRALASVHAWEHGDFMCKGYIQSRLSDPLYNVYSNVETSNELWDSLDKKYQTKDAGSQKYAAAKFLDYKMVDSRPMMVQVEELTCLFHDI”, the “soluble on expression in E. coli” value is reported as “soluble”.
In the case of “MIEFHNVHKTYRVAGKEIPALHPTNLRVDDGQVFGIIGHSGAGKSTLLRLINRLETPSGGQIVVDGEDVTALDANGLRRFRQQVGMIFQHFNLLASRTVADNVAMPLTLAGDMPRKQIDQRVAELLERVGLSDHAKKYPAQLSGGQKQRVGIARALATKPKILLCDEATSALDPQTTASVLQLLAEINRELKLTIVLITHEMDVIRRVCDQVAVMDAGVIVEQGKVADVFLHPQHSTTKRFVQEDDQVDENEQRDDFAHVQGRIVRLTFQGDATYAPLLGTVARETGVDYSILAGRIDRIKDTPYGQLTLAITGGDMDAAFARFTAADVHMEVLR”, the “soluble on expression in E. coli” value is reported as “not soluble”.
In the case of “SLLSPAAERSQGSLLSVIMEILKDQSHRELFGLELGSGTGQHVVHFAQEMPFVTWLPSDTKEESRNSIRAYIEATKAKTVLEPVHLDASEPWDKWAGLPQNSCDIILAINLLQYTPFSTAEGVFKGSGQILKQNGLLMTYGPYAINGTITPICNEQLDETLRQMNPEWGLPDIDVLRQLAFSNGMRMERMIEMPESNKCLVFRKL”, the “soluble on expression in E. coli” value is reported as “soluble”.
For “MGSDKIHHHHHHDLDENVYDKLPTDEFGTTEKQINAIMAPAYQSLKNMLAYDGPWGAADMTADILIAPTRVGGDWWDGGQYMEQCMHSWKPNSYSVENCWTYCTEGLTTVNSVYNIIEKSEAMSDELKLQYLSELRGLRAFWYYVIVDIFGNAPLVTDFEDTSLPSITSRADLYKYVVKELTEIIPNLRSDVSDASYGKFTQGAARMVLAKMYLNAEEWIGEPNWKGVVEQCDEIMKLEYIIEPNWKTNFEVHNEVSREIIFPICYKASDAWGNSIHLWTLHYLDPDVLGFTGGMWNGINAQPDFVRTFDTEDPRYEGSFLIGPMIDPSTGEILKTTLGHDLIHTIDLNVVPGTEKTDADGNLTPWGEVHQEDGARINKWVYEKGMQNTNMENDIAIFRLADVYLMKAEALVRMGGDLGEATRLVNAIRERAYGNSDHNYTSVTLDDIYNERGYELAFEFVRRQDMIRFGTYLKPRYMKPKQTPEYRKIFPIPFKAWQKNNNLVQNPGYPAF”, the “soluble on expression in E. coli” value was “not soluble”.
